Reference: PMC7504508
Where two headings read alike, the source gives them in different places.

Key:
[1] = target: GST-Sumo fusion protein of the perch Connexin 35 C-terminal domain (amino acids 251-304), wild type (perch)
[2] = target: GST-Sumo fusion protein of the perch Connexin 35 C-terminal domain (amino acids 251-304), wild type (perch); assay: SPR; GST-Sumo-Cx35 fusion proteins captured by immobilised anti-GST antibodies on a CM5 chip (Biacore 2000); calmodulin as analyte, 3 nM to 30 µM; GST-Sumo reference flowcell subtracted; 1 mM free Ca2+, 0.5 mM free Mg2+, 140 mM KCl, 10 mM MOPS pH 7.2, 0.05% Tween 20; first order ligand binding …
[3] = target: GST-Sumo fusion protein of the perch Cx35 C-terminal domain (251-304) I277A (perch); assay: as above
[4] = target: GST-Sumo fusion protein of the perch Cx35 C-terminal domain (251-304) R268A (perch); assay: as above
[5] = target: GST-Sumo fusion protein of the perch Cx35 C-terminal domain (251-304) V267A (perch); assay: as above
[6] = target: GST-Sumo fusion protein of the perch Cx35 C-terminal domain (251-304) V270A, Q271A (perch); assay: as above
[7] = target: GST-Sumo fusion protein of the perch Connexin 35 C-terminal domain (amino acids 251-304), wild type (perch); assay: as above; remark: listed apart in the source

calmodulin (from UniProt P0DP23 1-149) (natural protein)
reduction of Neurobiotin tracer coupling by 5 µM ionomycin in transiently transfected HeLa cells (full-length untagged Cx35 wild type in the cells) [1]: 67% | Kd [2]: 1380 nM | Kd [3]: 1260 nM | Kd [4]: 2460 nM | Kd [5]: 5390 nM | Kd [6]: 1190 nM | Kd [7]: 1430 nM
